{"source": "patent US20170189519A1", "binders": {"B1": {"name": "CR6261 (antibody, V domains shown)", "VH": "EVQLVESGAEVKKPGSSVKVSCKASGGPFRSYAISWVRQAPGQGPEWMGGIIPIFGTTKYAPKFQGRVTITADDFAGTVYMELSSLRSEDTAMYYCAKHMGYQVRETMDVWGKGTTVTVSS", "VL": "QSVLTQPPSVSAAPGQKVTISCSGSSSNIGNDYVSWYQQLPGTAPKLLIYDNNKRPSGIPDRFSGSKSGTSATLGITGLQTGDEANYYCATWDRRPTAYVVFGGGTKLTVLG"}}, "assay_in_all_cases": "ELISA, coated CR6261, P. pastoris medium", "settings_in_all_cases": "remark: other sources report otherwise", "key": {"[1]": {"biological_target": "101D4 (influenza A H1N1 A/Brisbane/59/2007)"}, "[2]": {"biological_target": "104C4 (influenza A H1N1 A/Brisbane/59/2007)"}, "[3]": {"biological_target": "113E7 (influenza A H1N1 A/Brisbane/59/2007)"}, "[4]": {"biological_target": "115A1 (influenza A H1N1 A/Brisbane/59/2007)"}, "[5]": {"biological_target": "123E2 (influenza A H1N1 A/Brisbane/59/2007)"}, "[6]": {"biological_target": "127A7 (influenza A H1N1 A/Brisbane/59/2007)"}, "[7]": {"biological_target": "13185 (influenza A H1N1 A/Brisbane/59/2007)"}, "[8]": {"biological_target": "134A3 (influenza A H1N1 A/Brisbane/59/2007)"}, "[9]": {"biological_target": "134A4 (influenza A H1N1 A/Brisbane/59/2007)"}, "[10]": {"biological_target": "134H10 (influenza A H1N1 A/Brisbane/59/2007)"}, "[11]": {"biological_target": "137C5 (influenza A H1N1 A/Brisbane/59/2007)"}, "[12]": {"biological_target": "138F8 (influenza A H1N1 A/Brisbane/59/2007)"}, "[13]": {"biological_target": "145F2 (influenza A H1N1 A/Brisbane/59/2007)"}, "[14]": {"biological_target": "162B3 (influenza A H1N1 A/Brisbane/59/2007)"}, "[15]": {"biological_target": "171F6 (influenza A H1N1 A/Brisbane/59/2007)"}, "[16]": {"biological_target": "174G3 (influenza A H1N1 A/Brisbane/59/2007)"}, "[17]": {"biological_target": "176A5 (influenza A H1N1 A/Brisbane/59/2007)"}, "[18]": {"biological_target": "182G8 (influenza A H1N1 A/Brisbane/59/2007)"}, "[19]": {"biological_target": "182H2 (influenza A H1N1 A/Brisbane/59/2007)"}, "[20]": {"biological_target": "185G7 (influenza A H1N1 A/Brisbane/59/2007)"}, "[21]": {"biological_target": "188G10 (influenza A H1N1 A/Brisbane/59/2007)"}, "[22]": {"biological_target": "18987 (influenza A H1N1 A/Brisbane/59/2007)"}, "[23]": {"biological_target": "191C8 (influenza A H1N1 A/Brisbane/59/2007)"}, "[24]": {"biological_target": "191D5 (influenza A H1N1 A/Brisbane/59/2007)"}, "[25]": {"biological_target": "213C11 (influenza A H1N1 A/Brisbane/59/2007)"}, "[26]": {"biological_target": "214C4 (influenza A H1N1 A/Brisbane/59/2007)"}, "[27]": {"biological_target": "220C9 (influenza A H1N1 A/Brisbane/59/2007)"}, "[28]": {"biological_target": "234C5 (influenza A H1N1 A/Brisbane/59/2007)"}, "[29]": {"biological_target": "239D2 (influenza A H1N1 A/Brisbane/59/2007)"}, "[30]": {"biological_target": "245C9 (influenza A H1N1 A/Brisbane/59/2007)"}, "[31]": {"biological_target": "249B11 (influenza A H1N1 A/Brisbane/59/2007)"}, "[32]": {"biological_target": "251C8 (influenza A H1N1 A/Brisbane/59/2007)"}, "[33]": {"biological_target": "264G4 (influenza A H1N1 A/Brisbane/59/2007)"}, "[34]": {"biological_target": "272H2 (influenza A H1N1 A/Brisbane/59/2007)"}, "[35]": {"biological_target": "284B9 (influenza A H1N1 A/Brisbane/59/2007)"}}, "data": [{"binder": "B1", "values": [{"measurement": "CR6261 binding signal", "setting": "[1]", "result": 337000}, {"measurement": "CR6261 binding signal", "setting": "[2]", "result": 521000}, {"measurement": "CR6261 binding signal", "setting": "[3]", "result": 966000}, {"measurement": "CR6261 binding signal", "setting": "[4]", "result": "1.18e+06"}, {"measurement": "CR6261 binding signal", "setting": "[5]", "result": 477000}, {"measurement": "CR6261 binding signal", "setting": "[6]", "result": 233000}, {"measurement": "CR6261 binding signal", "setting": "[7]", "result": 844000}, {"measurement": "CR6261 binding signal", "setting": "[8]", "result": 532000}, {"measurement": "CR6261 binding signal", "setting": "[9]", "result": 456000}, {"measurement": "CR6261 binding signal", "setting": "[10]", "result": 592000}, {"measurement": "CR6261 binding signal", "setting": "[11]", "result": 296000}, {"measurement": "CR6261 binding signal", "setting": "[12]", "result": 348000}, {"measurement": "CR6261 binding signal", "setting": "[13]", "result": 499000}, {"measurement": "CR6261 binding signal", "setting": "[14]", "result": 280000}, {"measurement": "CR6261 binding signal", "setting": "[15]", "result": 140000}, {"measurement": "CR6261 binding signal", "setting": "[16]", "result": 491000}, {"measurement": "CR6261 binding signal", "setting": "[17]", "result": 193000}, {"measurement": "CR6261 binding signal", "setting": "[18]", "result": 400000}, {"measurement": "CR6261 binding signal", "setting": "[19]", "result": 110000}, {"measurement": "CR6261 binding signal", "setting": "[20]", "result": 506000}, {"measurement": "CR6261 binding signal", "setting": "[21]", "result": 143000}, {"measurement": "CR6261 binding signal", "setting": "[22]", "result": 336000}, {"measurement": "CR6261 binding signal", "setting": "[23]", "result": 309000}, {"measurement": "CR6261 binding signal", "setting": "[24]", "result": 124000}, {"measurement": "CR6261 binding signal", "setting": "[25]", "result": 667000}, {"measurement": "CR6261 binding signal", "setting": "[26]", "result": 302000}, {"measurement": "CR6261 binding signal", "setting": "[27]", "result": "1.09e+06"}, {"measurement": "CR6261 binding signal", "setting": "[28]", "result": 278000}, {"measurement": "CR6261 binding signal", "setting": "[29]", "result": 570000}, {"measurement": "CR6261 binding signal", "setting": "[30]", "result": 180000}, {"measurement": "CR6261 binding signal", "setting": "[31]", "result": 145000}, {"measurement": "CR6261 binding signal", "setting": "[32]", "result": 270000}, {"measurement": "CR6261 binding signal", "setting": "[33]", "result": 181000}, {"measurement": "CR6261 binding signal", "setting": "[34]", "result": 263000}, {"measurement": "CR6261 binding signal", "setting": "[35]", "result": "1.66e+06"}]}]}
